The labels stand for the following.
B1: LINE1-mini (parent)
chain: GGCAGAGCUCAACACAGCGUGGCAAAGUGGCUGUGGCUAGACUGCC

The variants in this data set derive from B1. Kind of data set: self-cleavage, relative activity (ratio to wild type); higher = more cleavage; in vitro, sequencing; the parent is a self-cleaving ribozyme.
For the variant G1A U9C, the self-cleavage worked out at 0.1. On to G1A U9A, for which the self-cleavage stood at 0.34. In the case of G1A U9G, the self-cleavage amounted to 0.22. On to G1C A24C, for which the self-cleavage was 0.07. In the case of G1C A24U it was 0.2; in that of G1C A24G, 0.29. On to G1C C45G, for which the self-cleavage is 0.16. As to G1C C45U, the self-cleavage was found to be 0.15. For the variant G1C C45A, the self-cleavage was found to be 0.16.

On to G1C U38A, for which the self-cleavage worked out at 0.05. G1C U38G: the self-cleavage was found to be 0.01.

In the case of G1C U38C, the self-cleavage worked out at 0.06. For G1U A4U, the self-cleavage is 0.22. With G1U A4G, the self-cleavage was 0.25. Regarding G1U A4C, the self-cleavage came out at 0.06. For G1C A11U the value was 0.03. With G1C A11G, the self-cleavage was determined as 0.01. In the case of G1C A11C it was 0.01.

With G1C C46G, the self-cleavage was 0.3.

Take G1C C46A: the self-cleavage came out at 0.28.

As to G1C C46U, the self-cleavage stood at 0.18. Consider G1C C10G, for which the self-cleavage came out at 0.03. Regarding G1C C10U, the self-cleavage is 0.04. For the variant G1C C10A, the self-cleavage was 0.02. As for G1C U34C, the self-cleavage is 0.03. G1C U34A: the self-cleavage was determined as 0.01.

Regarding G1C U34G, the self-cleavage was determined as 0.02.

As for G1C U43A, the self-cleavage was determined as 0.02. For the variant G1C U43C, the self-cleavage is 0.03. With G1C U43G, the self-cleavage was 0.13. For G1C A41G, the self-cleavage turned out to be 0.02. With G1C A41U, the self-cleavage is 0.1. With G1C A41C, the self-cleavage is 0.02. Consider G1C G29C, for which the self-cleavage came out at 0.07. Turning to G1C G29U, the self-cleavage was 0.14. G1C G29A: the self-cleavage turned out to be 0.16. In the case of G1C C23G it was 0.08; in that of G1C C23U, 0.07; in that of G1C C23A, 0.16. As to G1C C18A, the self-cleavage stood at 0.04. For the variant G1C C18U, the self-cleavage worked out at 0.05. On to G1C C18G, for which the self-cleavage came out at 0.03. Take G1C G21A: the self-cleavage was determined as 0.42. G1C G21C: the self-cleavage is 0.06.

As for G1C G21U, the self-cleavage amounted to 0.17. Regarding G1C G2U, the self-cleavage turned out to be 0.08.

G1C G2C: the self-cleavage was found to be 0.15. Take G1C G2A: the self-cleavage worked out at 0.13. Turning to G1C C31U, the self-cleavage came to 0.04.

Consider G1C C31A, for which the self-cleavage came out at 0.02.

In the case of G1C C31G, the self-cleavage came out at 0.01.

G1C G22C: the self-cleavage was 0.19. On to G1C G22U, for which the self-cleavage was determined as 0.17. For G1C G22A the value was 0.12. Take G1C U28A: the self-cleavage is 0.04.

In the case of G1C U28G, the self-cleavage was found to be 0.07. For G1C U28C, the self-cleavage was 0.02.

Turning to G1C G19C, the self-cleavage came to 0.04. G1C G19U: the self-cleavage came out at 0.06. With G1C G19A, the self-cleavage came to 0.11. Turning to G1C U20G, the self-cleavage stood at 0.05. Take G1C U20A: the self-cleavage worked out at 0.06. For G1C U20C the value was 0.04; for G1C G5U, 0.02. Take G1C G5C: the self-cleavage came out at 0.02. Take G1C G5A: the self-cleavage was 0.05.

In the case of G1C C3G, the self-cleavage was 0.1.

With G1C C3U, the self-cleavage worked out at 0.18.

For G1C C3A, the self-cleavage is 0.19. For G1C C37G, the self-cleavage came to 0.02.

As for G1C C37U, the self-cleavage was 0.02. For the variant G1C C37A, the self-cleavage was determined as 0.02. G1C G36C: the self-cleavage was found to be 0.01. Take G1C G36A: the self-cleavage stood at 0.05. With G1C G36U, the self-cleavage amounted to 0.03. In the case of G1A U43G, the self-cleavage is 0.02.

Turning to G1A U43C, the self-cleavage worked out at 0.11. For G1A U43A, the self-cleavage amounted to 0.05.

In the case of G1C G27U, the self-cleavage was 0.12.

As for G1C G27C, the self-cleavage stood at 0.14.

With G1C G27A, the self-cleavage is 0.16. G1C G44C: the self-cleavage is 0.03. In the case of G1C G44A, the self-cleavage came to 0.06. Turning to G1C G44U, the self-cleavage worked out at 0.06. Regarding G1C G40C, the self-cleavage is 0.03. In the case of G1C G40A it was 0.03; in that of G1C G40U, 0.02; in that of G1C C42A, 0.02. Consider G1C C42U, for which the self-cleavage worked out at 0.04. For G1C C42G, the self-cleavage was 0.01. As to G1C A12U, the self-cleavage was determined as 0.06. On to G1C A12C, for which the self-cleavage was 0.02.

Take G1C A12G: the self-cleavage was determined as 0.02.

On to G1C U32A, for which the self-cleavage stood at 0.02.

Take G1C U32G: the self-cleavage came out at 0.04.

Consider G1C U32C, for which the self-cleavage was 0.03.

G1C: the self-cleavage stood at 0.13. For G1U the value was 0.33; for G1C C13A, 0.05; for G1C C13U, 0.04. For G1C C13G the value was 0.04.

Consider G1C A6U, for which the self-cleavage was 0.14. In the case of G1C A6C it was 0.04; in that of G1C A6G, 0.02; in that of G1C A14C, 0.02.

Consider G1C A14G, for which the self-cleavage amounted to 0.08. Take G1C A14U: the self-cleavage turned out to be 0.02. G1C G33A: the self-cleavage was 0.03. For the variant G1C G33C, the self-cleavage amounted to 0.14. With G1C G33U, the self-cleavage was 0.04. In the case of G1C G7A it was 0.04. Turning to G1C G7U, the self-cleavage was 0.03.

Consider G1C G7C, for which the self-cleavage is 0.02. Take G1A U20C: the self-cleavage came to 0.33. With G1A U20G, the self-cleavage was found to be 0.58.

For the variant G1A U20A, the self-cleavage came to 1.27.

As to G1C A39G, the self-cleavage was 0.01. For the variant G1C A39C, the self-cleavage worked out at 0.04. For the variant G1C A39U, the self-cleavage was found to be 0.06. Regarding G1U A6G, the self-cleavage was 0.07.

In the case of G1U A6C, the self-cleavage came out at 0.51. As for G1U A6U, the self-cleavage is 0.22. For G1A U38G, the self-cleavage amounted to 0.03. Regarding G1A U38A, the self-cleavage turned out to be 1.36. Regarding G1A U38C, the self-cleavage is 0.84.

Consider G1C U9G, for which the self-cleavage was found to be 0.02.

Take G1C U9C: the self-cleavage stood at 0.03. In the case of G1C U9A it was 0.02; in that of G1A G44U, 0.91; in that of G1C G17C, 0.06. With G1C G17A, the self-cleavage was 0.02. For the variant G1C G17U, the self-cleavage was determined as 0.02. For G1C A16G the value was 0.12; for G1C A16C, 0.01; for G1C A16U, 0.02. As to G1C C15G, the self-cleavage was 0.03.

With G1C C15U, the self-cleavage is 0.07. Consider G1C C15A, for which the self-cleavage turned out to be 0.02.

For the variant G1A U34A, the self-cleavage was 0.08. On to G1A U34C, for which the self-cleavage worked out at 0.14. With G1A U34G, the self-cleavage is 0.29. Take G1A U32G: the self-cleavage was found to be 0.09.

Take G1A U32A: the self-cleavage stood at 0.09. On to G1A U32C, for which the self-cleavage was 0.11. With G1A U28A, the self-cleavage was found to be 0.26. With G1A U28G, the self-cleavage turned out to be 0.6. Regarding G1A U28C, the self-cleavage was found to be 0.39. Regarding G1C A25U, the self-cleavage came out at 0.08. Regarding G1C A25C, the self-cleavage came out at 0.1. Consider G1C A25G, for which the self-cleavage was 0.01. Take G1C A26G: the self-cleavage was 0.09.

Regarding G1C A26C, the self-cleavage was determined as 0.08. For G1C A26U the value was 0.12; for G1C G35U, 0.03; for G1C G35A, 0.03. For the variant G1C G35C, the self-cleavage worked out at 0.02. Turning to G1C G30C, the self-cleavage stood at 0.04. With G1C G30U, the self-cleavage worked out at 0.06.

G1C G30A: the self-cleavage is 0.18. Turning to G1C A4U, the self-cleavage was 0.06.

For G1C A4C, the self-cleavage was determined as 0.12. For G1C A4G, the self-cleavage was 0.07. Take G1C C8A: the self-cleavage stood at 0.06.

Turning to G1C C8U, the self-cleavage worked out at 0.07. In the case of G1C C8G it was 0.02; in that of G1U A11C, 0.03. On to G1U A11G, for which the self-cleavage stood at 0.02.
